Assay results taken from patent US10233437B2, “Hypochlorite resistant cyanuric acid hydrolases and methods of use thereof” (REGENTS OF THE UNIVERSITY OF MINNESOTA, priority 2015, dated 2019).
Where a chain is given by its changes, count along the chain named. Names and notes keep the numbering of the source.

B1: C46A: Moorella thermoacetica CAH with cysteine at residue 46 replaced with alanine (protein)
chain: MQKVEVFRIPTASPDDISGLATLIDSGKINPAEIVAILGKTEGNGAVNDFTRGFATQSLAMYLAEKLGISREEVVKKVAFIMSGGTEGVMTPHITVFVRKDVQEPAKPGKRLAVGVAFTRDFLPEELGRMEQVNEVARAVKEAMKDAQIDDPRDVHFVQIKCPLLTAERIEDAKRRGKDVVVNDTYKSMAYSRGASALGVALALGEISADKISNEAICHDWNLYSSVASTSAGVELLNDEIIVVGNSTNSASDLVIGHSVMKDAIDADAVRAALKDAGLKFDCCPPAEELAKIVNVLAKAEAASSGTVRGRRNTMLDDSDINHTRSARAVVNAVIASVVGDPMVYVSGGAEHQGPDGGGPIAVIARV
B2: C46S: Moorella thermoacetica CAH with cysteine at residue 46 replaced with serine (protein)
chain: B1 chain with A46S

Key:
[1] = Inactivation of CAH by Michael addition; format: biochemical; details: 30 uM enzyme, 350 uM N-ethylmaleimide
Description: Inactivation of the WT and variant CAH from a Michael addition reaction was also investigated using N-ethylmaleimide. Specifically, the WT or C46A enzymes (30 uM) were incubated with 350 uM N-ethylmaleimide.

[2] = Bleach sensitivity of CAH; format: biochemical; details: 30 μM protein pre-incubated with 1 mM bleach
Description: (§1) To determine bleach sensitivity of WT, C46A and C46S CAH, purified protein (30 μM) was pre-incubated with or without 1 mM bleach. At appropriate time points, aliquots of the protein samples were diluted 100 fold into a solution of 140 ppm cyanuric acid and incubated for 10 minutes before the cyanuric acid concentration was measured with the melamine turbidity assay. The results are plotted as the log of the percent of untreated-protein activity as a function of treatment time.

[3] = Circular dichroism thermal melting; format: physicochemical; details: CD at 220 nm, 25 μM protein, 55 to 90° C.
Description: The circular dichroism (CD) measurements were performed on a Jasco J-815 spectrometer with 25 μM protein in 50 mM M Tris-HCl buffer, pH 7.2 in a 1 mm path length cell. For thermal melting, the changes in CD spectra at of the proteins were sampled at 220 nm every 1° C. during continuous heating the solutions from 55 to 90° C. at 1 degree per minute. Data were normalized to the initial reading at 55 C.

[4] = Resistance of CAH to mercury (II) salt; format: biochemical; details: 48 uM enzyme, 1.6 mM phenyl mercuric acetate, assayed after one minute
Description: The effect of a common heavy metal, mercury, on the activity of WT and variant CAH was also tested. […] Specifically, mercury (II) salts were used to test resistance, which are known to be particularly damaging to proteins. The WT or C46A enzymes (48 uM) were incubated with 1.6 mM phenyl mercuric acetate; the WT CAH enzyme retained 1% activity (+/−13% error) (so it was 99% inactivated) while the C46A mutant enzyme retained 89% activity (+1-11%) (so it was completely resistant within experimental error) when assayed after one minute.

[5] = Sensitivity of CAH to hydrogen peroxide; format: biochemical; details: 30 μM CAH, 8.5 mM H2O2
Description: as §1, with “determine” for “determine bleach”, “C46S CAH to various oxidants or sulfhydryl reagents,” for “C46S CAH,”, “without the potential inhibitor, 8.5” for “without 1”, “mM hydrogen peroxide, 50 μM potassium permanganate, 22 μM (1 ppm) ozone or 20 mM iodoacetamide.” for “mM bleach.”, “turbidity assay (explained in previous document).” for “turbidity assay.”

[6] = Cyanuric acid hydrolase activity (melamine turbidity assay); format: biochemical; details: 140 ppm cyanuric acid in phosphate buffered saline; 0.03 μM enzyme (0.12 μM for C46D, V, T)
Description: To determine CAH activity, 0.03 μM enzyme was incubated with a 140 ppm cyanuric acid (CYA) solution in phosphate buffered saline (138 mM NaCl, 3 mM KCl, 10 mM Na2HPO4, 2 mM KH2PO4). For the WT protein and the C46A and C46S variants, fractions were removed every 5 minutes to assay CYA concentration using a modified melamine turbidity assay (Downes et al. 1984). An equal volume of melamine solution (2.5 mg/mL in water) was added to cyanuric acid samples and mixed thoroughly. The absorbance at 600 nm was read 2 minutes after mixing. For the severely impaired CAH proteins (C46D, V and T), 0.12 μM protein was used and fractions were removed every hour for CYA measurement. Specific activity (nmol min^−1 mg^−1) was calculated as the average of triplicate data at two time points.

[7] = Sensitivity of CAH to iodoacetamide; format: biochemical; details: 30 uM CAH, 20 mM iodoacetamide
Description: In addition to commonly used oxidants, the effect of a commonly used sulfhydryl reactive agent (iodoacetamide) was also tested on the activity of WT and variant CAH. It was reasoned that a sulfhydryl reactive compound might react with the cysteine sulfhydryl group of the wild-type protein to block substrate access to the active site much in the same way an oxidant could oxidize the cysteine sulfhydryl group and block active site access.
as §1, with “determine” for “determine bleach”, “C46S CAH to various oxidants or sulfhydryl reagents,” for “C46S CAH,”, “without the potential inhibitor, 8.5” for “without 1”, “mM hydrogen peroxide, 50 μM potassium permanganate, 22 μM (1 ppm) ozone or 20 mM iodoacetamide.” for “mM bleach.”, “turbidity assay (explained in previous document).” for “turbidity assay.”

Molecule | Protection from inactivation by N-ethylmaleimide [1] | Resistance to inactivation by bleach [2] | Thermal melting curve compared to WT [3] | Activity retained [4] [%] | Decrease of sensitivity to hydrogen peroxide versus wild-type [5] | Specific activity [6] [µmol/min/mg] | Effect of iodoacetamide on activity [7]
B1 | completely protected | largely resistant to inactivation by bleach | very closely resemble the WT curve | 89 | over four-fold | 10.03 | not affected
B2 | – | largely resistant to inactivation by bleach | very closely resemble the WT curve | – | over four-fold | 6.972 | –
